In publication PMC7855469:

Target: radial spoke protein 9 (RSP9) (C. reinhardtii)
Experiment: cryo-EM structure

radial spoke protein 9 (RSP9) (natural protein)
stoichiometry N: 2
